Test results published in patent US20070141625A1 (published 2007).

Target: T1, protein C (PC) (UniProt P04070 43-461)
T1 construct: Commercial PC
Test: inhibition by rhsEPCR 2 µM of PC activation by thrombin on EA.hy926 endothelial cells; Ki derived from the shift of Km
Experimental: Proc Natl Acad Sci USA. 1996; 93:10212-6). 5×10⁴ cells/well were incubated in a 96-well plate with 0.02 U/ml of thrombin (0.17 nM) (ERL, Swansea, United Kingdom) and growing concentrations of PC (Baxter, Deerfield, Ill., USA) between 50 and 1000 nM in Tris 20 mM buffer, pH 7.4, supplemented with NaCl 150 mM, CaCl₂ 5 mM, MgCl₂ 0.6 mM, 1% BSA, 0.001% Tween-20 and 0.02% NaN₃. After 45 minutes at room temperature, lepirudin was added (Schering A G, Berlin, Germany) at an end concentration of 0.2 μmol/L, to inhibit thrombin; 3-4 minutes later, chromogenic substrate S-2366 was added (Chromogenix, Milan, Italy) at an end concentration of 0.4 mM with the purpose of monitoring its proteolysis by APC. The increase in absorbance at 405 nm was recorded kinetically with a microplate reader (iEMS REader, Labsystems, Finland). Curve data fitting to the Michaelis-Menten equation was carried out using the Enzfitter program (Biosoft, Cambridge, United Kingdom), which calculated the Km of PC activation under those conditions. Where necessary, 45 μg/ml of purified anti-EPCR autoantibodies from patients (see below) were added simultaneously with the thrombin and PC. Thus, the effect of the anti-EPCR autoantibodies upon PC activation could be analyzed. […]

T1 sequence (P04070 43-461): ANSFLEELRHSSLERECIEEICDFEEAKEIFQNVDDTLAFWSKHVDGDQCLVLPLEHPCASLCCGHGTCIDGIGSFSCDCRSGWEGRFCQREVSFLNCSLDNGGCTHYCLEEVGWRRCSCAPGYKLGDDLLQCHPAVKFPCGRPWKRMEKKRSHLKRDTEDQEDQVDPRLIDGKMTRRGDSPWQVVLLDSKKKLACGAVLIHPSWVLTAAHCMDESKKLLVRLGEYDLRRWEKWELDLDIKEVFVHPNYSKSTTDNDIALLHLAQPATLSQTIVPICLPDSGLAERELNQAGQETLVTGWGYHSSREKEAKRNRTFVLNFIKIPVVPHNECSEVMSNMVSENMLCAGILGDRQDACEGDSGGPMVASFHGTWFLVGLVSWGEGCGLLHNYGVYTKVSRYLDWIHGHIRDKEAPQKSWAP

B1: recombinant human soluble EPCR (rhsEPCR) (receptor)
chain: SISQDASDGLQRLHMLQISYFRDPYHVWYQGNASLGGHLTHVLEGPDTNTTIIQLQPLQEPESWARTQSGLQSYLLQFHGLVRLVHQERTLAFPLTIRCFLGCELPPEGSRAHVFFEVAVNGSSFVSFRPERALWQADTQVTSGVVTFTLQQLNAYNRTRYELREFLEDTCVQYVQKHISAENTKGSQTSRSYTSAAASFLEQKLISEEDLNSAVDHHHHHH
notes: also called recombinant sEPCR; human recombinant EPCR in soluble form
- Ki: ~0.07 µM
